Measurements: US20260286308A1, “COMPOSITION CONTAINING EXTRACELLULAR MATRIX AND MATRIX-BOUND VESICLES FOR PRODUCING EXTRACELLULAR MATRIX AND PREPARATION METHOD THEREFOR” (HLB CELL CO., LTD, priority 2023, published 2026)

Assays:
[1] = tested on: Human fibroblasts; assay: Total collagen content in cell culture of single-cultured human fibroblasts (Sirius Red kit, absorbance 530 nm); conditions: 10 ng/mL epidermal growth factor added alone (Table 3 No. 2); FIG. 17
Experimental: To measure the human collagen content in the extracellular matrix present in a culture obtained according to each example described below, quantitative analysis was conducted by utilizing a commercially available Sirius Red kit (Chondrex, #9062). The analysis method followed the manufacturer's instructions. Specifically, Sirius Red solution was added to the culture, followed by incubation, and the precipitated collagen was then mixed with an acidic solution and quantitatively analyzed by measurement of absorbance at 530 nm.
Human fibroblasts were seeded at a density of 3×10^5 cells per 150-mm^2 culture dish. The cells were cultured in high-glucose Dulbecco's Modified Eagle's Medium (DMEM) supplemented with 10% fetal bovine serum and 1% penicillin for 7 days while a growth medium was exchanged every 2-3 days.
(§1) After being cultured according to Example 1.1.1, the cells were further cultured from day 8 using a serum-free/xeno-free culture medium [Dulbecco's Modified Eagle Medium: Ham's F-12 (1:1) supplemented with 100 (DMEM/F12) U/mL penicillin/streptomycin, 2 mM L-alanyl-L-glutamine, 5 μg/L selenium, 50 M ascorbate-2-phosphate, 10 mg/L insulin, 1 μM hydrocortisone, 0.02 nM triiodothyronine, 1 μM isoprenaline, and 10 μg/L epidermal growth factor] while the medium was exchanged at intervals of 2 to 3 days. […] The cell culture after collection was analyzed according to Example 3. […]

[2] = tested on: Human fibroblasts
Experimental: The analysis method followed the manufacturer's instructions.
Culture media each lacking an individual factor were prepared, and then culture was performed according to Example 1.1.
Then, culture was performed according to Example 1.1.

[3] = tested on: Human fibroblasts; assay: Laminin content in cell culture of single-cultured human fibroblasts (anti-human laminin antibody plate kit, absorbance 450 nm); conditions: 10 ng/mL epidermal growth factor added alone (Table 3 No. 2); FIG. 16
Experimental: To measure the amount of human laminin component in the extracellular matrix present in a culture obtained according to each example described below, quantitative analysis was conducted by using a commercially available analysis kit (TakaRa, MK107). The analysis method followed the manufacturer's instructions. Specifically, the culture was added onto a 96-well plate coated with an anti-human laminin antibody, followed by incubation. Thereafter, residues were washed off, and a chromogenic enzyme-conjugated specific antibody was added, followed by incubation. Then, quantitative analysis was conducted by measurement of the absorbance at 450 nm.
Human fibroblasts were seeded at a density of 3×10^5 cells per 150-mm^2 culture dish. […]
as §1

B1: epidermal growth factor: growth factor / ErbB signaling factor added to the serum-free/xeno-free culture medium (protein, UniProt P01133 23-1207, looked up)
Pro-epidermal growth factor: PQHWSCPEGTLAGNGNSTCVGPAPFLIFSHGNSIFRIDTEGTNYEQLVVDAGVSVIMDFHYNEKRIYWVDLERQLLQRVFLNGSRQERVCNIEKNVSGMAINWINEEVIWSNQQEGIITVTDMKGNNSHILLSALKYPANVAVDPVERFIFWSSEVAGSLYRADLDGVGVKALLETSEKITAVSLDVLDKRLFWIQYNREGSNSLICSCDYDGGSVHISKHPTQHNLFAMSLFGDRIFYSTWKMKTIWIANKHTGKDMVRINLHSSFVPLGELKVVHPLAQPKAEDDTWEPEQKLCKLRKGNCSSTVCGQDLQSHLCMCAEGYALSRDRKYCEDVNECAFWNHGCTLGCKNTPGSYYCTCPVGFVLLPDGKRCHQLVSCPRNVSECSHDCVLTSEGPLCFCPEGSVLERDGKTCSGCSSPDNGGCSQLCVPLSPVSWECDCFPGYDLQLDEKSCAASGPQPFLLFANSQDIRHMHFDGTDYGTLLSQQMGMVYALDHDPVENKIYFAHTALKWIERANMDGSQRERLIEEGVDVPEGLAVDWIGRRFYWTDRGKSLIGRSDLNGKRSKIITKENISQPRGIAVHPMAKRLFWTDTGINPRIESSSLQGLGRLVIASSDLIWPSGITIDFLTDKLYWCDAKQSVIEMANLDGSKRRRLTQNDVGHPFAVAVFEDYVWFSDWAMPSVMRVNKRTGKDRVRLQGSMLKPSSLVVVHPLAKPGADPCLYQNGGCEHICKKRLGTAWCSCREGFMKASDGKTCLALDGHQLLAGGEVDLKNQVTPLDILSKTRVSEDNITESQHMLVAEIMVSDQDDCAPVGCSMYARCISEGEDATCQCLKGFAGDGKLCSDIDECEMGVPVCPPASSKCINTEGGYVCRCSEGYQGDGIHCLDIDECQLGEHSCGENASCTNTEGGYTCMCAGRLSEPGLICPDSTPPPHLREDDHHYSVRNSDSECPLSHDGYCLHDGVCMYIEALDKYACNCVVGYIGERCQYRDLKWWELRHAGHGQQQKVIVVAVCVVVLVMLLLLSLWGAHYYRTQKLLSKNPKNPYEESSRDVRSRRPADTEDGMSSCPQPWFVVIKEHQDLKNGGQPVAGEDGQAADGSMQPTSWRQEPQLCGMGTEQGCWIPVSSDKGSCPQVMERSFHMPSYGTQTLEGGVEKPHSLLSANPLWQQRALDPPHQMELTQ
modifications: Pro-epidermal growth factor
B1 was tested, and the total collagen concentration [1] was 56.94 µg/mL, the “amount of extracellular matrix produced, compared among growth factor groups” value ([2]; 10 ng/mL epidermal growth factor added alone, compared with FGF-2, KGF and combinations (Table 3)) was “highest amount” and the “amount of extracellular matrix produced” value ([2]; factor individually removed from serum-free/xeno-free culture medium (Table 1), compared with medium containing all factors, FIGS. 8 and 9) was “significantly reduced”. The laminin concentration [3] was 2.68 µg/mL.
